Columns and labels:
[1] = Measurement of NO-scavenging ability (nitrite/dithionite/methyl viologen reaction, remaining nitrite by diazotization method); format: biochemical; conditions: reaction turnover number from Lineweaver-Burk plot; 2, 4, 6, 8 and 10 mM sodium nitrite; pH 7.0; 37° C.
Experimental: To a 10 ml vial, 0.3 ml of 100 mM phosphate buffer (pH 7.0), 0.4 ml of 10 mM sodium nitrite, 0.5 ml of a solution of each of the above-described peptides, and 0.4 ml of 3 mM methyl viologen (Tokyo Kasei Kogyo) were added. Then, the vial was tightly sealed with a butyl rubber stopper and an aluminum seal. This vial was kept at 37° C. for 5 min while feeding argon gas thereinto. Then, 0.3 ml of 100 mM sodium dithionite (dissolved in 50 mM sodium hydrogencarbonate) was added thereto to start the reaction. A 0.2 ml sample was taken from the reaction solution at regular intervals and air-oxidized in a vortex mixer to thereby terminate the reaction.
The amount of the remaining nitrite was determined by the diazotization method. 0.02 ml of the reaction solution was taken, and 1.98 ml of ultrapure water was added thereto. Then, 1 ml of 1% sulfanilamide, 1 ml of 0.02% N-1-naphthyl ethylenediamine chloride and 1 ml of ultrapure water were added thereto. The resultant solution was left at room temperature for 20 min. Then, absorption of the produced azo dye was measured at 540 nm, followed by calculation of the amount of the remaining nitrite from a working curve prepared from a nitrous acid solution of a known concentration.
The measurement of absorption was performed with Shimadzu UV-1600 UV-Visible Spectrophotometer.
Analysis based on reaction kinetics was performed by determining specific activities against 2, 4, 6, 8 and 10 mM sodium nitrite and then calculating the reaction turnover number kcat(s^−1) using a Lineweaver-Burk plot.

[2] = Oxidation-reduction potential (spectrophotometer and ORP electrode); format: physicochemical
Experimental: (§1) In the following Examples, reagents manufactured by Wako Purechemical Industries were used unless otherwise noted. Isoelectric point was analyzed by isoelectric focusing using Ampholine PAGplate gel (Pharmacia; for IEF; pH 3.5-9.5). Absorption maximum was determined with Hitachi U-3310 Spectrophotometer (Hitachi). Oxidation-reduction potential was determined with Hitachi U-3310 Spectrophotometer (Hitachi) and ORP electrode (Metrohm).

[3] = Isoelectric point by isoelectric focusing (Ampholine PAGplate gel, pH 3.5-9.5); format: physicochemical
Experimental: as §1

With “Horse cardiac muscle cytochrome c: horse cardiac muscle cytochrome c (Wako Purechemical Industries), SEQ ID NO: 1; comparison protein [reference compound]” the “Rate Constant kcat” value [1] was 0.01521 s⁻¹.

For “mp9: heme peptide, SEQ ID NO: 4, heme bound to Cys 1 and 4; trypsin digest of horse cardiac muscle cytochrome c (CAQCHTVEK; heme bound to Cys1 and Cys4; listed as Equus caballus)”, the Oxidation-reduction potential [2] was −132 mV, the Isoelectric point [3] was 4.95 and the “Rate Constant kcat” value [1] was 1.66 s⁻¹.

For “mp15: heme peptide, SEQ ID NO: 3, heme bound to Cys 5 and 8; thermolysin digest of Porphyra yezonesis cytochrome c6 (FSANCAACHAGGNNA; heme bound to Cys5 and Cys8; listed as Porphyra yezoensis)”, the Oxidation-reduction potential [2] was −82.2 mV, the Isoelectric point [3] was 4.15 and the “Rate Constant kcat” value [1] was 2.54 s⁻¹.

With “mp22: heme peptide, SEQ ID NO: 5, heme bound to Cys 4 and 7; chymotrypsin digest of horse cardiac muscle cytochrome c (VQKCAQCHTVEKGGKHKTGPNL; heme bound to Cys4 and Cys7; listed as Equus caballus)” the Oxidation-reduction potential [2] was −66.5 mV, the Isoelectric point [3] was 6.02 and the “Rate Constant kcat” value [1] was 0.80 s⁻¹.

In the case of “mp65: heme peptide, SEQ ID NO: 6, heme bound to Cys 14 and 17; cyanogen bromide cleavage of horse cardiac muscle cytochrome c”, the Oxidation-reduction potential [2] is reported as −62.1 mV, the Isoelectric point [3] is reported as 9.52 and the “Rate Constant kcat” value [1] is reported as 0.12 s⁻¹.

B1: Red alga Porphyra yezonesis cytochrome c6: cytochrome c6 purified from red alga Porphyra yezonesis, SEQ ID NO: 2; comparison protein (protein, listed as Porphyra yezoensis)
chain: ADLDNGEKVFSANCAACHAGGNNAIMPDKTLKKDVLEANSMNTIDAITYQVQNGKNAMPAFGGRLVDEDIEDAANYVLSQSEKGW
With B1 the “Rate Constant kcat” value [1] was 0.05 s⁻¹.
